Experimental data: PMC10080691, “Enzyme-Responsive Double-Locked Photodynamic Molecular Beacon for Targeted Photodynamic Anticancer Therapy” (Journal of the American Chemical Society, 2023)

Assays:
[1] = biological target: cathepsin B (Homo sapiens, UniProt P07858); experiment: Cathepsin B-responsive fluorescence activation; format: biochemical; details: 1 μM, cathepsin B only (1 unit mL-1), pH 5.0 buffer, 0.1% Tween 80, 37 °C
Procedure: To examine the response of PMB 1 toward MMP-2 and cathepsin B, its absorption and fluorescence spectra were monitored in the presence of these stimuli at 37 °C over a period of 25 h, using the non-cleavable analogue 14 as the negative control. For studying the MMP-2-responsive effect, MMP-2 (2 μg mL^–1) in PBS at pH 7.4 was used to mimic the high serum levels of this enzyme in patients with cancer.[68] The effect of cathepsin B (using a concentration of 1 unit mL^–1) was studied in the working buffer mentioned above at pH 5.0 to mimic the lysosomal environment.[69] […] Similar results were obtained for the study using cathepsin B in the buffer (Figure S8e–h). […] The more flexible ring-opening structure, however, might slightly increase the separation of the two moieties, leading to a lower FRET efficiency,[70] which could explain the small increase in fluorescence intensity. […] As expected, both the absorption and fluorescence spectra were not changed toward these two enzymes (Figure S9).
The fluorescence recovery was then determined for 1 under the aforementioned conditions, assuming that the fluorescence intensity of 8 at the same concentration in the same medium was the maximum fluorescence intensity that could be recovered. […]
All of the solutions were stirred continuously at 37 °C. The ir electronic absorption and fluorescence spectra were monitored over a period of 25 h. […]

[2] = Stability in PBS and cathepsin B working buffer without enzymes (absorption/fluorescence spectra); format: physicochemical; details: 1 μM, PBS pH 7.4 or buffer pH 5.0 (25 mM NaOAc, 1 mM EDTA, 500 μM GSH), 0.1% Tween 80, 37 °C, 25 h
[3] = system: skin of nude mice; experiment: In vivo photodynamic effect on skin; details: intravenous 20 nmol
Procedure: The mice were first intravenously injected with either 1 or 6 (20 nmol) in 200 μL of distilled water containing 3% DMSO and 0.5% Tween 80 (v/v). The whole-body fluorescence images of the mice were monitored using an infrared imaging system over a period of 24 h.
At 6 h post-injection of 1 or 6, the mice were irradiated with the aforementioned laser source (680 nm, 0.3 W cm^–2) on a region of the skin (marked in Figure 8d) for 10 min, which were the conditions used for in vivo PDT as described above. The appearance of the irradiated region was then examined after 24 h. […] The skin tissues of these mice were then harvested and examined using the TUNEL assay.
Further evidence was obtained by the H&E staining of these skin tissues.
Female Balb/c nude mice (20–25 g) were injected with a solution of 1 or 6 (20 nmol) in 200
μL of distilled water containing 3% DMSO and 0.5% Tween 80 (v/v) through the tail vein.
vivo fluorescence imaging was performed before and after the injection at different time points
up to 24 h with an Odyssey infrared imaging system (excitation wavelength = 680 nm, emission
wavelength ≥ 700 nm). The images were digitized and analyzed using an Odyssey imaging
Three mice were used for each comp ound. To study the
photodynamic effect of these two compounds on the skin of the mice, a region of the skin was
illuminated with a diode laser (Biolitec Ceralas) at 680 nm operated at 0.24 W at 6 h post -
injection of these compounds. Illumination on a circu lar spot with a diameter of 1.0 cm (fluence
rate = 0.3 W cm-2) for 10 min led to a total fluence of 180 J cm–2. After 24 h, the mice were
sacrificed, and then the skin tissues were harvested. They were fixed with 4%
paraformaldehyde, dehydrated in an alcohol series, mixed with solutions of xylene and paraffin,
and then embedded in paraffin. The tissue sections were prepared by a Leica RM2235
microtome. After the H&E staining, the tissues were examined with a Nikon Eclipse Ni-E
upright fluorescence microscope. For the TUNEL staining assay, the skin tissues were dewaxed
and rehydrated in an alcohol series and then incubated with a Proteinase K solution (20 μg mL-
1) at room temperature for 30 min. After being rinsed with PBS three times, the tissue slides
were stained with 50 μL of Nucleotide Mix (a mixture of terminal deoxynucleotidyl transferase
and cyanine 3-labeled deoxyuridine triphosphate) of the one -step TUNEL assay kit (Beyotime,
Shanghai, China), and then the nuclei were stained with Hochest 33342 (10 μM) for 1 h at
room temperature. After being rinsed with PBS for three times, the tissue slides were examined
with a Zeiss LSM 880 NLO laser scanning microscope equipped with two solid-state 405 and
561 nm lasers. Hoechst 33342 was excited at 405 nm and its fluorescence was monitored at
410−500 nm, while the TUNEL staining cyanine 3 dye was excited at 561 nm and its
fluorescence was monitored at 570−620 nm.

[4] = with laser irradiation (680 nm, 0.3 W cm-2, 10 min), 24 h after

Structure (SMILES): CCN(CC)c1ccc2nc3ccc(/N=N/c4ccc(N(C)CCCNC(=O)OC[C@@H]5[C@@H]6CCc7nnn(CC(=O)NCCCC[C@@H]8NC(=O)CNC(=O)[C@H](CCCCN)NC(=O)[C@H](CCCNC(=N)N)NC(=O)[C@H](C(C)C)NC(=O)CNC(=O)[C@H](CC(C)C)NC(=O)[C@@H]9CCCN9C(=O)[C@H](CCCCN)NC(=O)[C@@H](N)CSCc9cc(COc%10ccc(C%11=C%12C(C)=C(I)C(/C=C/c%13ccc(OCCOCCOCCOC)cc%13)=[N+]%12[B-](F)(F)n%12c(/C=C/c%13ccc(OCCOCCOCCOC)cc%13)c(I)c(C)c%12%11)cc%10)cc(c9)CSC[C@@H](C(N)=O)NC(=O)[C@H](CCCCN)NC(=O)[C@H](CCCCN)NC(=O)CNC(=O)[C@H](CC(C)C)NC(=O)[C@H](Cc9ccccc9)NC(=O)CNC(=O)[C@H](CCCCN)NC(=O)CNC8=O)c7CC[C@@H]65)cc4)cc3[n+](-c3ccccc3)c2c1 [compound 1]
- on/off ratio (fluorescence intensity at 25 h / initial intensity) [1]: ca. 2.7
- stability in the absence of enzymes [2]: stable
- appearance of irradiated skin region after 24 h ([3]; laser 680 nm, 0.3 W cm-2, 10 min at 6 h post-injection): no noticeable change
- H&E staining of skin tissue [3, 4]: virtually intact
- TUNEL assay of skin tissue [3, 4]: negligible
- H&E staining of skin tissue ([3]; without laser irradiation): virtually intact
- TUNEL assay of skin tissue (fluorescence intensity) ([3]; without laser irradiation): negligible
